Measured values published in the RNAGym collection of RNA variant scans (doi:10.1073/pnas.2313332121).

B1: TPR t1 (parent)
chain: GACCAAUCUGCCCUCAGAGCUCGAGAACAUCUUCGGAUGCAGAGGAGGCAGGCUUCGGUGGCGCGAUAGCGCCAACGUCCUCAACCUCCAAUGCAUCCCACCACAUGAUGAUGCCUGAAGAGCCUUGGUUUUUUG

Variants of: B1
Test: polymerase ribozyme fitness, log enrichment relative to wild type (log ratio); higher = more active; in vitro selection for triplet polymerase activity
Summary of the method: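 A single round of triplicate in vitro selection, including frozen incubation at −7 °C, was applied to PCR-built, transcribed mutant libraries of each subunit of a heterodimeric triplet polymerase ribozyme. Illumina sequencing of input and output libraries retained genotypes with ≥10 input reads and ≥1 read per output. Fitness is the base-2 logarithm of genotype enrichment divided by wild-type enrichment, from inverse-variance-weighted replicate averages.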

| Variant | polymerase ribozyme fitness (log ratio) |
| --- | --- |
| C12G G47C A66U A90C G120C U129A | -6.06 |
| C12U C49A A50C A95C | -1.09 |
| C12U G42U A84C U116A | -3.42 |
| C12U C89U A100C U133G | -1.42 |
| C12U C15U G17A C64U A83C C85A G117U | -2.73 |
| C12U C80U | -0.606 |
| C12U A91U G135U | -2.33 |
| C12U C13U A50U U78G U131C | -0.743 |
| C12U C34A U132A | -1.35 |
| C12U C22G U38A C79U G122A | -3.65 |
| C12U C13U C79G | -1.13 |
| C12U G44U G110A | -2.1 |
| C12G G44A G48U A103G U112A C115A | -6.92 |
| C12G G58U A90U A105U | -4.19 |
| C12U A27C | -2.1 |
| C12U C73U | 0.0527 |
| C12U C73A | 0.441 |
| C12G G120C | 1.23 |
| C12G C72U A100C | -1.28 |
| C12G U14C U59G | -1.18 |
| C12U C94U U112C | 1.32 |
| C12U A50G G71U U130C | 0.0947 |
| C12G G60A C85G G117A U131A | -1.29 |
| C12G G42U C49A G113C U132A | -2.5 |

| Variant | polymerase ribozyme fitness (log ratio) |
| --- | --- |
| C12U G45U G77C | -0.677 |
| C12G G19C | -1.64 |
| C12U A27G C88A C123G U126A | -1.75 |
| C12U C40U G42C C80A C88G C102A A111G C123U U134G | -6.19 |
| C12U C56A G69A | -2.89 |
| C12U C13A A27G G93A | -5.78 |
| C12U C15U G45U G69C C82A C101U | -2.95 |
| C12G G47C G52A C64U C123A | -3.61 |
| C12U C64U | 0.0316 |
| C12U C64A | -5.62 |
| C12G C62U A68C U116C A121C U129A | -6.48 |
| C12U A121C | 2.05 |
| C12G C73A A74G C89A A111G G127U | -5.44 |
| C12G G61A C62G U87A G113U U125G | -7.34 |
| C12U G47A C79U U87C | 0.112 |
| C12G G36U C56U A121U G122U | 0.307 |
| C12U G45A | -1.24 |
| C12U G45U | -0.901 |
| C12G C98U A119G | 0.523 |
| C12G G45A U78C A84C U106G | -2.62 |
| C12U A46C G47U C86A A108G | -1.87 |
| C12U A91U | -1.85 |
| C12U C56U G69U U112G A119U | -2.27 |
| C12G U14C G17U C22G C49G G117C U130A | -6.43 |

| Variant | polymerase ribozyme fitness (log ratio) |
| --- | --- |
| C12G C73A C88U G122A | -1.14 |
| C12U C49G C97A A111U | -5.43 |
| C12U C62A C73U G77U | -3.65 |
| C12U C70U C80A C97U A121G U133A | -3.61 |
| C12G C89A | -1.41 |
| C12U C40U G69C A91U C101U A121C | -2.89 |
| C12G G51C | -3.21 |
| C12U A26U G93U | -3.6 |
| C12U C70U U129C | -0.46 |
| C12G U112A U133G | 1.61 |
| C12U A29G G71U G128A | -3.03 |
| C12G G17U G57C C62A C115G U129C U132C | -3.27 |
| C12G U14G G107U C114U G120U C123U U133A | -4.14 |
| C12G U14G G57A G113U | -7.24 |
| C12U G44C C82G A103G G117C | -6.32 |
| C12G G52A C88U G120U | 1.84 |
| C12G C124A | 1.61 |
| C12U A50U C73U U125A | -0.873 |
| C12G G47A G48C A68G A103G A105C U106A G117U G120C | -7.36 |
| C12U C70U C97A | -5.44 |
| C12G G48C C49A U55C G61A A95G G110A | -2.17 |
| C12G C80U | 0.429 |
| C12U A50G A74U U78C G93A | -1.93 |
| C12U C13U C89U U133G | -0.318 |

| Variant | polymerase ribozyme fitness (log ratio) |
| --- | --- |
| C12G G69U U81G A90U G127U | -4.07 |
| C12G G35A A74U | -4.41 |
| C12U G42C C62A G120U U126C | -1.07 |
| C12U A18C | -1.45 |
| C12U A29G C73G U92C C94A | -5.22 |
| C12G G57A G61U C80A | -2.05 |
| C12G C123G | 1.55 |
| C12U A46C G52U | -0.969 |
| C12U G36A A83C U106A U129C G135U | -1.4 |
| C12U A43U | -1.51 |
| C12U C22G G45A G71A C94U C99U | -4.76 |
| C12G C72G C104U C123U C124A | 2.06 |
| C12U C31G A37G G45U A50C G51U C102A G117U | -7.15 |
| C12U A16U G63C A105C C124G | -2.25 |
| C12U G47C G69U G107A | -4.81 |
| C12U C94A | -0.148 |
| C12U C94U | -0.204 |
| C12U C123U | 1.71 |
| C12U G19U A43U C64G A95C G117U | -7.83 |
| C12G C53A G71U G107C U112C | -4.39 |
| C12U C97U | -0.793 |
| C12U C62U C70G G93A | -5.44 |
| C12U C53U C80G C82U A90G | -2.24 |
| C12U C15G G63U G120U | -0.846 |

| Variant | polymerase ribozyme fitness (log ratio) |
| --- | --- |
| C12U A18C C34U G120C | -4.87 |
| C12U G42U C70U U81C G120U | -1.9 |
| C12G G120C A121G | -1.12 |
| C12U G17C C97G C115G | -3.25 |
| C12G C72A | -0.123 |
| C12G C88A | 0.489 |
| C12G G47C U96A C104A | -4.59 |
| C12U G19A G45U | -2.71 |
| C12U C72A C80U | -0.362 |
| C12U C70U G71A | -0.916 |
| C12U G47A | -0.468 |
| C12G U55A U87A | 0.0839 |
| C12U C99A | -3.9 |
| C12U A27G G42A A90G G93U A95G | -2.39 |
| C12U C56U | 0.248 |
| C12U C31G | -5.12 |
| C12U G35A G57C C88U | -4.97 |
| C12G U14A U38G C76U C85G | -3.19 |
| C12U A27G C40U C56U C79A U81A C124U | -2.87 |
| C12G C56G C70G | -3.6 |
| C12U G47A U55A G61U C86U | -0.0107 |
| C12U G19C C56U U81G C104A G117C | -5.9 |
| C12G G19U C72U | -6.54 |
| C12U A50C C64U A66G U81C | -4.8 |

| Variant | polymerase ribozyme fitness (log ratio) |
| --- | --- |
| C12G C62U | 0.0184 |
| C12G C73A C79A C86U | -0.241 |
| C12U C13U C40G C76A G77A U131C | -0.917 |
| C12G U59G G60U A95U G110C | -5.19 |
| C12U C80G G128C U130C | -4.44 |
| C12G U87A | -0.0361 |
| C12U G17U C28U G39A G42C C56U C70G U106A U109C U112C | -6.21 |
| C12G C115G | -2.46 |
| C12U G19U A90C | -2.37 |
| C12G C40U C49U G65C C114G | -6.07 |
| C12U C40G | -0.0831 |
| C12G G69U G93U C94G U96A C97U U109A | -5.02 |
| C12G C49G U54A | -0.423 |
| C12U C72U | -0.537 |
| C12U C72G | 0.149 |
| C12U C20U C22A G45U C70U A83U A118U | -6.7 |
| C12U C73A C104A | -0.305 |
| C12U A18G G63C C88G A90C C114A G122A | -5.09 |
| C12U G45A U96C G110U G135A | -2.06 |
| C12U G39C G52C C53A C79A A119U | -1.3 |
| C12U C34A G71U U78G U125A | -3.95 |
| C12U G35A C62U G117A | -6.59 |
| C12G U55A C70U G113C | -3.9 |
| C12G C94U G110C G127C | -4.48 |

| Variant | polymerase ribozyme fitness (log ratio) |
| --- | --- |
| C12G U30C A41U G48A | -5.05 |
| C12G U32A A37U | -3.65 |
| C12U A18U G47C U130A | -4.44 |
| C12U G44U G47C C89A A90C U116A U131G | -3.02 |
| C12G C70A C82U A105U U106A U109G | -4.43 |
| C12G G35A G48U G57U C80U | -4.47 |
| C12U C49G | -0.764 |
| C12U C56A G63U C89U C124A | -4.63 |
| C12U C53G A90C | -1.61 |
| C12G G36C A43C G63C | -4.59 |
| C12U C49G G113U C114A U129A | -4.7 |
| C12G C85G | -1.08 |
| C12U A37U G63A C85U G93C G120A | -0.961 |
| C12U C89G | -0.883 |
| C12G G61U G107U | -4.66 |
| C12U A27C C49A | -2.06 |
| C12U C85G | -0.35 |
| C12G G93A C94U | -1.83 |
| C12U G23A U130C | -5.34 |
| C12G C40U A43U A83U A105C C124G | -5.47 |
| C12G G71C U96A A108G C123G | -4.58 |
| C12U G39C C64U A84U | -0.905 |
| C12U C22U C28U C124A | -4.02 |
